The text below walks through data of PMC2923778 (Journal of Molecular Biology, 2010).

Where only a bound is given, the exact number is not on record here.

The target in assay [1] is T1, hSPSB1(24–233) (human, UniProt Q96BD6 24-233).
T1 construct: human SPSB1 lacking the SOCS box region, residues 24-233; also called human SPSB1 SPRY domain; source: E. coli BL21(DE3)-R3-pRARE2, purified (Ni-Sepharose, TEV cleavage, size-exclusion, anion exchange); not shown: His6, N-terminal, cleaved
T1 sequence (looked up): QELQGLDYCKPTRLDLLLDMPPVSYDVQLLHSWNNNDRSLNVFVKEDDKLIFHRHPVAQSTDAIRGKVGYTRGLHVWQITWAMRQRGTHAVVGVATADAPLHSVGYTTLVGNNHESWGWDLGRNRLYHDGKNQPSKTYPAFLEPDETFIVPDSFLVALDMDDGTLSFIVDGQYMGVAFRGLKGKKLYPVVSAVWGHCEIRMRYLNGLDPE
The experiment in a line: ITC; 100 μM peptide titrated into 10 μM hSPSB protein; 20 °C; 50 mM Hepes pH 7.4, 150 mM NaCl, 1 mM DTT (hSPSB1) or 0.5 mM TCEP (hSPSB2, hSPSB4); single binding site model. The note with it: both partners purified.

In assay [2] the target is T2, hSPSB2(26–219) (human, UniProt Q99619 26-219).
T2 construct: human SPSB2 lacking the SOCS box region, residues 26-219; also called human SPSB2 SPRY domain; source: E. coli BL21(DE3)-R3-pRARE2, purified (Ni-Sepharose, size-exclusion); not shown: His6, N-terminal, kept
T2 sequence (looked up): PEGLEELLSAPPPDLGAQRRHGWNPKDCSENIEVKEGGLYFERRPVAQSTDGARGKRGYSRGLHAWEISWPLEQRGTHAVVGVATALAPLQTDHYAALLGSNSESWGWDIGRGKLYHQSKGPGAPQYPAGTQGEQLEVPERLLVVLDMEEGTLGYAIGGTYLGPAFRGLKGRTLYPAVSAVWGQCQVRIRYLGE
The assay is described as above. The note with it: both partners purified.

Assay [3] has as its target T3, mSPSB2(12–224) (murine, UniProt O88838 12-224).
T3 construct: murine SPSB2 (SSB-2), residues 12-224: lacks the first 11 residues and the C-terminal SOCS box; Uniformly 15N-labelled in one NMR experiment; also called mSPSB2ΔSB; 15N-mSPSB2(12–224); source: E. coli Origami B(DE3) pLysS, GST fusion, purified (glutathione-Sepharose, thrombin cleavage, gel filtration)
T3 sequence (looked up): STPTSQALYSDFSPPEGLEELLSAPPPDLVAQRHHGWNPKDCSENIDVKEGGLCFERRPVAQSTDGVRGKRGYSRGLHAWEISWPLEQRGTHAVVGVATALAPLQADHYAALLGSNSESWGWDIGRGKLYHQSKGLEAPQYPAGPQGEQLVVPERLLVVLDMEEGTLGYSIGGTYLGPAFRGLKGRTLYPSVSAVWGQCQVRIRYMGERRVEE
The experiment in a line: ITC; 100 μM peptide titrated into 10 μM mSPSB protein; 22 °C; 20 mM Tris, 150 mM sodium chloride, 2.5 mM calcium chloride, pH 8.0; single binding site model. The note with it: both partners purified. In general terms: ITC needs no label: the signal is the heat of the interaction.

Assay [4] deals with mSPSB4ΔSB (murine). Described as above.
In assay [5] the target is mSPSB1ΔSB (murine). The description is as above.
Assay [6] addresses T4, Par-4 (Homo sapiens, UniProt Q96IZ0).
T4 chain: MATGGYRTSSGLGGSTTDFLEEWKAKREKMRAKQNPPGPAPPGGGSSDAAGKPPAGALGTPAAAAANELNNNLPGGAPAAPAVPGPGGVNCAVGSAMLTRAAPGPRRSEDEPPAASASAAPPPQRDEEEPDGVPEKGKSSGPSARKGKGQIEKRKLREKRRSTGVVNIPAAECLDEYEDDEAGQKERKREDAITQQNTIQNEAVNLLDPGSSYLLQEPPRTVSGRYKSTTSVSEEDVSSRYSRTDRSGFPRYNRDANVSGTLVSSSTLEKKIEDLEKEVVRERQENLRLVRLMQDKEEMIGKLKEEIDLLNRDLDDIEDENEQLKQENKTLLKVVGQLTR
Put plainly: ITC.

B1: VASA(184–203) (peptide)
peptide: DINNNNNIVEDVERKREFYI
notes: DEAD-box RNA helicase VASA of Drosophila, residues 184-203; also called VASA-derived peptide; source: synthetic peptide (ThermoElectron GmbH)
As to B1, in assay [1], the dH is -20.5 ± 0.2 kcal/mol and the stoichiometry N (in general, a count of units in the complex or per binding partner) came out at 0.96. Besides, in assay [2], the affinity, expressed as Kd, was 147 nM; the dH was -23.9 ± 0.1 kcal/mol; the “stoichiometry N” value amounted to 0.96.

B2: [A66D]hPar-4(59–77) (peptide)
peptide: GTPAAAADNELNNNLPGGA
notes: human prostate apoptosis response protein-4 (hPar-4), residues 59-77, A66D; source: synthetic peptide (GL Biochem)
With B2, the dissociation constant (Kd) (as a rule, the constant that tells how readily two partners part at equilibrium) in assay [3] was found to be 4000 nM; in assay [4] it was 255 nM.

B3: [E68D,L69I]hPar-4(64–77) (peptide)
peptide: AAANDINNNLPGGA
notes: human prostate apoptosis response protein-4 (hPar-4), residues 64-77, E68D and L69I (DINNN motif as in VASA); also called double mutant; source: synthetic peptide (GenScript Corporation)
With B3, the results for the dissociation constant (Kd) in assay [3], in assay [4] and in assay [5] were 106 nM, 33 nM and 40 nM, respectively.

B4: [E68D]hPar-4(64–77) (peptide)
peptide: AAANDLNNNLPGGA
notes: human prostate apoptosis response protein-4 (hPar-4), residues 64-77, E68D
Turning to B4, the figures for the equilibrium dissociation constant (Kd) in assay [3] and in assay [4] were 208 nM and 47 nM, respectively.

B5: [N70A]hPar-4(64–77) (peptide)
peptide: AAANELANNLPGGA
notes: human prostate apoptosis response protein-4 (hPar-4), residues 64-77, N70A; source: synthetic peptide (GenScript Corporation)
For B5, the Kd in assay [4] and in assay [5] was > 50000 nM each time.

B6: [N71A]hPar-4(64–77) (peptide)
peptide: AAANELNANLPGGA
notes: human prostate apoptosis response protein-4 (hPar-4), residues 64-77, N71A; source: synthetic peptide (GenScript Corporation)
B6: the dissociation constant (Kd) in assay [4] and in assay [5] was > 50000 nM each time.

B7: [L69I]hPar-4(64–77) (peptide)
peptide: AAANEINNNLPGGA
notes: human prostate apoptosis response protein-4 (hPar-4), residues 64-77, L69I
In the case of B7, the dissociation constant Kd in assay [3] turned out to be 1600 nM; in assay [4], 55 nM.

B8: hPar-4(67–81) (peptide)
peptide: NELNNNLPGGAPAAP
notes: human prostate apoptosis response protein-4 (hPar-4), residues 67-81; source: synthetic peptide (ThermoElectron GmbH)
With B8, in assay [1], the Kd turned out to be 150 nM, the dH is -13.2 ± 0.1 kcal/mol and the “stoichiometry N” value stood at 0.94. For the same molecule, in assay [2], the dissociation constant (Kd) turned out to be 1520 nM, the dH is -16.2 ± 0.1 kcal/mol and the “stoichiometry N” value came to 1.18.

B9: SPSB2 (protein)
chain: MGQTALAGGSSSTPTPQALYPDLSCPEGLEELLSAPPPDLGAQRRHGWNPKDCSENIEVKEGGLYFERRPVAQSTDGARGKRGYSRGLHAWEISWPLEQRGTHAVVGVATALAPLQTDHYAALLGSNSESWGWDIGRGKLYHQSKGPGAPQYPAGTQGEQLEVPERLLVVLDMEEGTLGYAIGGTYLGPAFRGLKGRTLYPAVSAVWGQCQVRIRYLGERRAEPHSLLHLSRLCVRHNLGDTRLGQVSALPLPPAMKRYLLYQ
The molecule B9 displayed a Kd in assay [6] of 1500 nM.
